In publication PMC3338861:

Target: purified BfpD assembly ATPase (enteropathogenic Escherichia coli (EPEC))

Q: How did the stoichiometry N turn out when purified BfpD assembly ATPase (enzyme) was run?
A: Its stoichiometry N is 6.
